Tests used:
AtCBF1 [1] = target: T1, AtCBF1 (Arabidopsis thaliana, UniProt P93835 1-213); assay: EMSA
AtCBF1 [2] = target: T1, AtCBF1; assay: competition
OsDREB1C-m2 (R12K) = OsDREB1C-m2 (R12K) (Oryza sativa, UniProt Q9LWV3 1-214, R45K); assay: competition
OsDREB1C (WT) [3] = target: T2, OsDREB1C (WT) (Oryza sativa, UniProt Q9LWV3 1-214); assay: EMSA
OsDREB1C-m1 (A10_) = OsDREB1C-m1 (A10_) (Oryza sativa, UniProt Q9LWV3 1-214, del43-43); assay: EMSA
OsDREB1C (WT) [4] = target: T2, OsDREB1C (WT); assay: competition

T1 sequence (P93835 whole entry): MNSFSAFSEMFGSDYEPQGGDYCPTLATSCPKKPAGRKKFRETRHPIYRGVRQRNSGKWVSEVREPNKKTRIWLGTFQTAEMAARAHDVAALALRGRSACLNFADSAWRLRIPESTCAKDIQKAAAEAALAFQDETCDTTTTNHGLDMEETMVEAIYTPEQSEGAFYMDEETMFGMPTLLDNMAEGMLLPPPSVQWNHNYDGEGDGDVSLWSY

| Binder | binding result (AtCBF1 [2]) | binding result (OsDREB1C-m2 (R12K)) | also measured |
| --- | --- | --- | --- |
| ACCGAC probe, 29 bp (dsDNA) DNA 1: CAGGAGCTCGATGTAACCGACCTCGTCGA DNA 2: TCGACGAGGTCGGTTACATCGAGCTCCTG | – | – | binding result (AtCBF1 [1]): binds |
| ACCGAC competitor, 29 bp (dsDNA) DNA 1: CAGGAGCTCGATGTAACCGACCTCGTCGA DNA 2: TCGACGAGGTCGGTTACATCGAGCTCCTG | binds | binds | – |
| OsNR2 GCCGAC probe, 29 bp (dsDNA) DNA 1: CAGGAGCTCGATGTAGCCGACCTCGTCGA DNA 2: TCGACGAGGTCGGCTACATCGAGCTCCTG | – | – | binding result (OsDREB1C (WT) [3]): binds; binding result (OsDREB1C-m1 (A10_)): binds |
| OsNR2 GCCGAC competitor, 29 bp (dsDNA) DNA 1: CAGGAGCTCGATGTAGCCGACCTCGTCGA DNA 2: TCGACGAGGTCGGCTACATCGAGCTCCTG | binds | binds | binding result (OsDREB1C (WT) [4]): binds |
